# Test results as given in patent publication US11673916B2, “Neuroprotective peptides and methods of their use” (University of Pittsburgh—Of the Commonwealth System of …, priority 2020, dated 2023).
# How the values were obtained:
# [1] = biological target: T1, endogenous Kv2.1 channels (Rattus norvegicus, UniProt P15387); experiment: Immunocytochemistry of endogenous Kv2.1 channel clusters in fixed cortical neurons; type: cell-based; details: 10 μM, three-hour treatment, mean±SEM (FIG. 10B)
# T1 construct: in order to visualize the distribution of endogenous Kv2.1 channels; endogenous in cells; host or cells: primary rat cortical neurons
# T1 sequence (P15387 1-857): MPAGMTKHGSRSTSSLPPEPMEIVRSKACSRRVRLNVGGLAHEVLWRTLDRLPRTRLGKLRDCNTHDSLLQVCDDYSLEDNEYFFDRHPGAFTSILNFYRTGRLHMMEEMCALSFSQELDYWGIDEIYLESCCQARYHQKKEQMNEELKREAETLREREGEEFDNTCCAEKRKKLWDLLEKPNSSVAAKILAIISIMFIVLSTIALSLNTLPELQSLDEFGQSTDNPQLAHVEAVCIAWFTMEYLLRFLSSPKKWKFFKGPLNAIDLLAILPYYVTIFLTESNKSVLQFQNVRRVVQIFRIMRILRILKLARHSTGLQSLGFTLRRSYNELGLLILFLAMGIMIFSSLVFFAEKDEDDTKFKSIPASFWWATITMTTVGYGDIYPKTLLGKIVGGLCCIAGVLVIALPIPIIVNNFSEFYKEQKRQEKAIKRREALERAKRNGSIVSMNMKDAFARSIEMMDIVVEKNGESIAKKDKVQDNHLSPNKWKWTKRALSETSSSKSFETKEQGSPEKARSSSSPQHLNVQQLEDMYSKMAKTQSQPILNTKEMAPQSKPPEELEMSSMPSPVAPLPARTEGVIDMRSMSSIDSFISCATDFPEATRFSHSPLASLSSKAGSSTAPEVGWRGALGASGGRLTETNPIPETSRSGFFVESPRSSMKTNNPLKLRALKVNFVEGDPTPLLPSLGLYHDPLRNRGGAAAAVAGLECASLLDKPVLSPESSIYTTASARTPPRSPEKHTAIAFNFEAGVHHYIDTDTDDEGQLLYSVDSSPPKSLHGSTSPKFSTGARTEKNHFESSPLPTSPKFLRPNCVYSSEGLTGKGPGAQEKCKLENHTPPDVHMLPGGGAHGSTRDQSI
# Method: The in vitro Kv2.1 immunofluorescence experiment (FIG. 10) was carried out in DIV 21-26 primary rat neuronal cultures, as described above. Each coverslip was treated with either TAT-DP-2 or TAT-Sc-2 in its individual well to reach a final concentration of […] 3 hours, coverslips were transferred to PBS and immediately fixed with 4% paraformaldehyde/4% sucrose for 15 minutes. Coverslips were rinsed with PBS 3 times and then permeabilized with 0.25% triton-X-100 for 15 minutes. Cells were rinsed with PBS 3 times and then blocked with 2% BSA/10% normal goat serum for 1 hour at room temperature. […]
# To analyze Kv2.1 distribution in live primary cortical neurons, cells were transfected with both a tdTomato construct and a GFP-tagged Kv2.1 construct (O'Connell, et al., J Neurosci. 26: 9609-9618, 2006) and imaged on a Nikon A1+ confocal microscope (Nikon, Tokyo, Japan). […] For live images of transfected neurons, object count parameters were customized to define a Kv2.1 cluster as an area of high intensity GFP fluorescence (compared to background), measuring 0.05 μm^2 or larger (Schulien et al., J Physiol (Lond). 594: 2647-2659, 2016). Kv2.1 cluster density was calculated by normalizing the number of Kv2.1 clusters counted to the somatic area of each neuron (#Kv2.1 clusters/μm^2). […]
# [2] = biological target: T2, Kv2.1-mediated potassium currents (Rattus norvegicus, UniProt P15387); experiment: Whole-cell voltage clamp of Kv2.1-mediated potassium current densities with or without TBOA; type: cell-based; details: voltage step from -80 mV to 30 mV, mean±SEM (FIG. 4A)
# T2 construct: endogenous in cells; host or cells: primary rat cortical neurons
# T2 sequence (P15387 1-857): T1 sequence (P15387 1-857)
# [3] = 10 μM peptide + TBOA (60 μM), 3-5 hours after treatment
Sequence,mean Kv2.1 surface cluster density (endogenous channels) [1],"mean Kv2.1-mediated potassium current density [2, 3]",mean Kv2.1-mediated potassium current density ([2]; 10 μM peptide without TBOA)
"YGRKKRRQRRRDFSSIST [TAT-Sc-2, TAT-linked scramble control peptide]",0.056±0.005 #Kv2.1 clusters/μm^2 of neuronal soma,130.80±9.43 pA/pF,71.42±10.27 pA/pF
"YGRKKRRQRRRSIDSFTS [TAT-DP-2, TAT-linked declustering peptide 2]",0.030±0.003 #Kv2.1 clusters/μm^2 of neuronal soma,65.68±12.07 pA/pF,66.86±4.76 pA/pF
